Source: the supplement of paper PMC12783771
± gives the standard deviation of the averaged measurements.

B1: library; numbered along this chain (parent)
chain: MNIQIGELAKRTACPVVTIRFYEQEGLLPPPGRSRGNFRLYGEEHVERLQFIRHCRSLDMPLSDVRTLLSYRKRPDQDCGEVNMLLDEHIRQVESRIGALLELKHHLVELREACSGARPAQSCGILQGLSDCVCDTRGTTAHPSD

Tests used:
[1] = variants of: B1; assay: sfGFP reporter fluorescence (15 h) (µM FITC); higher = higher leak; conditions: library round: Round 0; ligand: none
Procedure, shortened: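 An Echo normalized PCR-made linear PbrR templates to 5 nM and assembled 1 μL reactions in BL21 Star (DE3) PANOx-SP extract carrying the pPbrR-sfGFP reporter plasmid and 30 μg/mL GamS. Reactions received 1 µM lead chloride, 30 µM zinc acetate or no metal and stood 15 hr at 30 °C. Fluorescence at 485/528 nm (Synergy Neo2) was converted with FITC standard curves made in 50 mM sodium borate pH 8.5. Endpoint sfGFP signal is given in µM FITC, from up to three biological replicates.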

[2] = variants of: B1; assay: sfGFP reporter fluorescence (15 h) (µM FITC); higher = stronger transcriptional activation; conditions: library round: Round 0
Experimental: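 Cell-free (BL21 Star DE3 extract, PANOx-SP) biosensing: 1 µL Echo-assembled reactions with linear PbrR variant templates (5 nM) and pPbrR-sfGFP reporter, with 1 µM Pb (lead chloride), 30 µM Zn (zinc acetate) or no ligand; endpoint sfGFP fluorescence after 15 h at 30 °C, calibrated as µM FITC. Round 0 library (alanine scan, site saturation, combinatorial) of PbrR from Cupriavidus metallidurans; 2 biological replicates.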

| Variant | sfGFP reporter fluorescence [1] | sfGFP reporter fluorescence ([2]; ligand: 1 µM Pb) | sfGFP reporter fluorescence ([2]; ligand: 30 µM Zn) |
| --- | --- | --- | --- |
| V16T | 0.0641 ± 0.0031 | 0.0982 ± 0.0021 | 1.14 ± 0.09 |
| V16N | 0.0643 ± 0.0013 | 0.08686 ± 0.00052 | 0.487 ± 0.011 |
| V16C | 0.0634 | 0.0861 ± 0.0021 | 0.341 ± 0.081 |
| V16M | 0.0647 ± 0.0029 | 0.099 ± 0.0052 | 0.9379 ± 0.0042 |
| V16F | 0.0623 ± 0.0015 | 0.0641 | 0.107 ± 0.0029 |
| V16Q | 0.0663 ± 0.0031 | 0.112 ± 0.0083 | 1.425 ± 0.0039 |
| V16Y | 0.0629 ± 0.00078 | 0.0678 ± 0.001 | 0.119 ± 0.0018 |
| V16W | 0.0599 ± 0.0018 | 0.0623 ± 0.0021 | 0.064 ± 0.00078 |
| V16D | 0.0649 ± 0.0015 | 0.0975 ± 0.0026 | 0.9703 ± 0.0039 |
| V16A | 0.059 ± 0.0015 | 0.0729 ± 0.0015 | 1.06 ± 0.1 |
| V16E | 0.06341 ± 0.00052 | 0.0762 ± 0.001 | 0.986 ± 0.046 |
| V16H | 0.06542 ± 0.00026 | 0.109 ± 0.0086 | 0.447 ± 0.0096 |
| V16R | 0.0671 ± 0.001 | 0.132 ± 0.0057 | 2.03 ± 0.3 |
| V16I | 0.05864 ± 0.00052 | 0.0768 ± 0.0018 | 0.981 ± 0.061 |
| V16K | 0.0641 ± 0.0021 | 0.115 ± 0.0021 | 1.93 ± 0.075 |
| V16G | 0.0594 ± 0.0026 | 0.0812 ± 0.0018 | 0.493 ± 0.014 |
| V16L | 0.06249 ± 0.00026 | 0.0825 ± 0.0021 | 0.56 ± 0.022 |
| V16S | 0.06707 ± 0.00052 | 0.1145 ± 0.00026 | 1.22 ± 0.028 |
| V16P | 0.06102 ± 0.00026 | 0.08796 ± 0.00052 | 1.53 ± 0.031 |
| R11A | 0.0548 ± 0.0023 | 0.0709 ± 0.0013 | 0.565 ± 0.025 |
| V17A | 0.0568 ± 0.001 | 0.0566 ± 0.0013 | 0.622 ± 0.11 |
| I19A | 0.0577 ± 0.0013 | 0.0592 ± 0.00078 | 0.08063 ± 0.00052 |

| Variant | sfGFP reporter fluorescence [1] | sfGFP reporter fluorescence ([2]; ligand: 1 µM Pb) | sfGFP reporter fluorescence ([2]; ligand: 30 µM Zn) |
| --- | --- | --- | --- |
| K10A | 0.05644 ± 0.00052 | 0.0687 ± 0.0023 | 0.567 ± 0.026 |
| G6W | 0.061 ± 0.0023 | 0.06011 ± 0.00052 | 0.06212 ± 0.00026 |
| G6R | 0.0605 ± 0.001 | 0.0632 ± 0.00078 | 0.116 ± 0.0039 |
| G6N | 0.0607 ± 0.00078 | 0.0599 ± 0.0013 | 0.0773 ± 0.0015 |
| G6S | 0.0608 ± 0.0021 | 0.06853 ± 0.00052 | 0.412 ± 0.027 |
| G6Y | 0.0603 ± 0.0034 | 0.0608 ± 0.001 | 0.066 |
| G6T | 0.0594 ± 0.0021 | 0.0608 ± 0.0015 | 0.0799 ± 0.0047 |
| G6Q | 0.0592 ± 0.0023 | 0.05754 ± 0.00052 | 0.0746 ± 0.0039 |
| G6V | 0.0618 ± 0.0013 | 0.0618 ± 0.0013 | 0.0651 ± 0.0013 |
| G6P | 0.061 ± 0.0013 | 0.0601 ± 0.0015 | 0.06084 ± 0.00052 |
| P15V | 0.0757 ± 0.00078 | 0.07385 ± 0.00026 | 0.212 ± 0.018 |
| P15Y | 0.0652 ± 0.0021 | 0.0684 ± 0.0034 | 0.368 ± 0.0021 |
| P15D | 0.066 ± 0.0057 | 0.0689 ± 0.0021 | 0.286 ± 0.008 |
| P15C | 0.0656 ± 0.0052 | 0.0826 ± 0.0018 | 0.5684 ± 0.001 |
| P15H | 0.0667 ± 0.001 | 0.092 ± 0.0052 | 0.706 ± 0.044 |
| P15R | 0.06341 ± 0.00052 | 0.0876 ± 0.0021 | 1.04 ± 0.064 |
| P15L | 0.0667 | 0.0938 ± 0.0036 | 1.06 ± 0.078 |
| P15K | 0.0634 | 0.0958 ± 0.01 | 1.34 ± 0.047 |
| P15Q | 0.0654 ± 0.00078 | 0.0903 ± 0.0029 | 0.9395 ± 0.0039 |
| P15F | 0.0662 ± 0.0018 | 0.0702 ± 0.0049 | 0.256 ± 0.013 |
| P15S | 0.0621 ± 0.0029 | 0.0883 ± 0.0052 | 0.802 ± 0.01 |
| P15W | 0.061 ± 0.0013 | 0.06139 ± 0.00026 | 0.06634 ± 0.00052 |
